Measurements taken from the nanobody polyreactivity screen of Harvey et al. (2022).

Assay: yeast display, Sf9 membrane polyspecificity reagent, FACS + sequencing; frameworks hold sequencing errors
In short: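 A synthetic nanobody library was expressed on Saccharomyces cerevisiae BJ5465 by galactose induction for 36–48 hours. The library was stained for 1 hour at 4 °C with 10% biotinylated, detergent-solubilized Sf9 membrane reagent and enriched with streptavidin microbeads before FACS. Low and high (top ~1%) gates were set on anti-HA fluorescence for expression and streptavidin fluorescence for reagent binding, and each polyreactivity label reflects the gate of origin.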

Sequence	polyreactivity (PSR sort gate)
QVQLVESGGGLVQAGGSLRLSCAASGRTFGAYAMGCYRQAPGKERELVAAISIGGRTYYADSVKGRFTISRDKAKNTVYLQMNILKPEDTAVYYCNKVRSPWYDSWGQGTQVTVSS	high polyreactivity
QVQLVESGGGLVQAGGSLRLSCAASGSTFFGNTMGWYRQAPGKERELVATITRRGGSTYYADSVKGRFTMSRDNAKNTVYLQMNSLKPEDTAVYYCANRGPYTKYDYWGQGTQVTVSS	low polyreactivity
QVQLVESGGGLVQAGGSLRLSCAASGRIFPRNTMGWYRQAPGKQRELVAAISTRGGSTYYADSVKGRFTISRDNAKNTVYLQMNSLKPEDTAVYYCAAGRRFPAIYSTGNYWGQGTQVTVSS	high polyreactivity
QVQLVESGGGLVQAGGSLRLSCAASGRIFFTNAMGWYRQAPGKERELGAAIRFSGGRTYYADSVKGRFTISGDNAKNTVYLQMNSLKPEDTAVYYCAADPPRTRYRNARFDYWGQGTQVTVSS	high polyreactivity
QVQLVESGGGLVQAGGSLRLSCAASGYTFQYYAMGWYRQAPGKERELVAAISRGVGSTTYYADSVKGRFTISRDNAKNTVYLQMNSLKPEDTAVYYCNHDFLGDEYDYWGQGTQVTVSS	high polyreactivity
QVQLVESGGGLVQAGGTLRLSCAASGSIFLINAMGWYRPAPGKERELVAAISRSGGRTYYADSVKGRFTISRDNAKNTVYLQMNSLKPEDTAVYYCAVPSIYYAGRAYDYWGQGTQVSVSS	high polyreactivity
QVQLVESGVGLVQAGGTLRLSCAPSGSTFSVYAMGWYRQPPGKERELVADITRGGSTYADSVKGRFTISRDNAKITVYLQMNSLKPEDTAVYYCAGEEVTPYPLYWSTREYDYWGQGTQVTVSS	low polyreactivity
QVQLVESGGGLVQAGGSLRLSCAASGFTLIHYAMGWYRQAPGKERELVAGITTSGGSTYYADSVKGRFTISRDNAKNTGYLQMNSLKPEDTAVYYCNAEYRRRPKLGDEDEYWGQGTQVTVSS	high polyreactivity
QVQHVESVGGLVQAGGSLRLSCAASGRTFGCYTMGWYRHATGTERELVAGISSSGGSTYYADSVKGRFTISRDNAKNTVYLQMNSLKPEDTAVYYCARETYPHGLYYRPYDYWGQGTQVTVSS	low polyreactivity
QVQLVESGGGLVQAGGSLRLSCAATGSILNYYAMGWYRQAPGKERELVATISSGGNTHYADSVKGRFTISRDNAKNTVYLQMNSLKPEDTAVYYSAAVASKHWGRDYWGQGTQVTVSS	low polyreactivity
QVQLVESGGGLVQAGGSLRLSCAASGRIFDNYAMGWYRQAPGKERELVAAITSTGRTNYADSVKGRFTISRDNAKYTVYLQMYSLKPEDTAVYYCNVDYQYARSGHANAYEYYYWGQGTQVTVSS	low polyreactivity
QVQLVESGGGLVQAGGSLRLSCAASGRTFWANAMGWYRQAPGKERELVAAITIGGRTYYADSVKGRFTISRDNAKNTVYIQMNSLKPEDTAVYYCNAGSRRPFPAESGYWGQGTQVTVSS	low polyreactivity
QVQLVESGGGLVQAGGSLRLSCAASGRTFYSNAMGWYRQPPGKERELVAAIRRSGGSTYYADSVKGRFTISRDNAKNTVYLQMNSLKPEDTAVYYCNAPHHRYDWGQGTQVTVSS	high polyreactivity
QVQLVESGGGLVQAGGSLRLSCAASVSTFRNYAMGWYRQAPGKERELVAAISGSGVRTYYADSVKGRFTISRDNAKNTVYLQMNSLKPEDTAVYYCAARGQGGPYNYWGQGTQVTVSS	high polyreactivity
QVQLVESGGGLVQAGGSLRLSCAASGLIFKVYALGWYRQAPGQERELVAAITYSGGSTDYADSVKGRFTISRDNAKNTVYLQMNSLKPEDTAVYYCNVETVGHVNSYGYDYWGQGTQVTVSS	low polyreactivity
QVQLVESGGGLVQAGGSLRLSCAASGFTFPDYAMGWYRQAPGKERELVAAISSDCSTYYADSVKGRFTISRDNAKNTVYLQMNSLKPEDTAVYYCAAYVVWLYGYDYWGQGTQVTVSS	low polyreactivity
QLQLVESGGGLVQAGGSLRLSCAASGRIFWPNALGWYRQAPGKEREFVAAIRWSSDRTYYADSVKGRFTISRDNAKNTVYLQRNSLKPEDTAVYYCNAVRYVISKYDYWGQGTQVTVSS	high polyreactivity
QVQLVESGGGLVQAGGSLRLSCAASGSNFYDNAMGWYRQAPGKERELLAAITTSGDSTYYADSVKGPFTISRDNAKNTVYLQMNSLKPEDTAVYYCAARPRVRSSYRYYYWGQGTQVTVSS	high polyreactivity
QVQLVESGGGLVQAGGSLRLSCAASGSNLGLYAMGWYRQAPGKERELVAAISSGGSTYYADSVKGRFTISRDNAKNTVYLQMNSLKPEDTAVYYCAADLSLSRVVFGDYDYWGQGTQVTVSS	low polyreactivity
QVQLVESGGGLVQAGGSLRLSCAASGFTFVYNAMGWYRQAPGKERELVASITQSGDITYYADSVKGRFTISRDNAKNTVYLQMNSLKPEDTAVYYCNKFQGTGDRFDSWGQGTQVTVSS	low polyreactivity
QVQLVESGGGLVQAGGSLRLSCAASGITFDRNVMGWYRQAPGTERELVAAISKSGGRTYYADSVKGRFRISRDNAKNTDYLQLNSLKPEDTAVYYCNADVYSRKSLHQYEYWGQGTQVTVSS	high polyreactivity
QVQLVESGGVLVQAGGSLRLSCAASGRSFGVYAMGWYRQAPGKEMELVAAISEGGGSTNYADSVKGRFTISRDNAKNTVYLQMNSLKPEDTAVYYCAATYRTGVRRYYSWGQGTQVTVSS	low polyreactivity
